{
  "source": "patent US20110065645A1",
  "about": "“Compositions and Methods for Modulating Neuron Degeneration and Neuron Guidance” (The Regents of the University of California, priority 2009, published 2011)",
  "molecules": {"B1": {"name": "Wnt5a: recombinant Wnt5a protein (R&D Systems) (protein, UniProt P41221 62-380, looked up)", "Protein Wnt-5a": "IIGAQPLCSQLAGLSQGQKKLCHLYQDHMQYIGEGAKTGIKECQYQFRHRRWNCSTVDNTSVFGRVMQIGSRETAFTYAVSAAGVVNAMSRACREGELSTCGCSRAARPKDLPRDWLWGGCGDNIDYGYRFAKEFVDARERERIHAKGSYESARILMNLHNNEAGRRTVYNLADVACKCHGVSGSCSLKTCWLQLADFRKVGDALKEKYDSAAAMRLNSRGKLVQVNSRFNSPTTQDLVYIDPSPDYCVRNESTGSLGTQGRLCNKTSEGMDGCELMCCGRGYDQFKTVQTERCHCKFHWCCYVKCKKCTEIVDQFVCK"}},
  "key": {"[1]": {"test_system": "cortical neurons", "test": "Cortical neuron death/survival assay under PKCζ inhibition (Tuj1, TUNEL, DAPI staining)", "type": "cell-based", "source_text": "1. PKCζ is required for survival of cortical neurons. E15.5 cortical neurons were dissociated and cultured for 2 days in the presence of various concentrations of a cell membrane penetrating myristoylated peptide derived in the pseudosubstrate domain of PKC (FIGS. 12A-12D). This peptide is a specific inhibitor of PKCζ.\n2. Axon degeneration procedes cell body death when PKC is inhibited. We examined the timing of axon degeneration and cell body death. […] The death induced by PKCζ inhibition is much faster than Aβ peptide induced neuronal death (FIG. 12D), probably because the PKCζ is an essential kinase and peptide inhibition causes instant death, whereas Aβ has to bind to cell surface receptor and trigger a signaling cascade to cause death, which requires a longer time.\n3. Wnts are trophic factors for cortical neurons. […] Nuclear shrinkage (pyknosis) is a hallmark of neuronal cell death. Using DAPI staining, we can visualize the cell nuclei (FIG. 14B). […] Initial cortical axons and dendrite form and grow but axons start to disintegrate at E18.5 (FIG. 14D, from Wang et al 2006),^(13) (FIGS. 12F, 12K). Based on our preliminary results, we propose that Wnts are not only axon guidance molecules but also regulate neuronal survival and axon degeneration acting via PKC (FIG. 15).\n3. Survival and cell death assays for screening of monoclonal antibodies and small compounds. We use the same cell death/survival assay as described in FIGS. 12A-14D and use microtubule staining to analyze the integrity of microtubules, DAPI stain to measure the size of cell nuclei and TUNEL staining to assay cell death. Microtubule disassembly is quantified by staining intensity of Tuj1 and Tau antibodies. The size of cell nuclei is binned into difference sizes and the distribution of the nuclei size is used as quantification of pyknosis (FIG. 14C)."}, "[2]": {"test_system": "β-catenin", "test": "β-catenin immunostaining in commissural axon growth cones", "type": "cell-based", "details": "bath application; LiCl 2 mM", "source_text": "To understand how atypical PKC/Par pathway regulates axon guidance, we set out to determine the subcellular localization of aPKC, their substrates and downstream cellular effectors. […] Thus, our high-resolution confocal imaging detects a tendency of β-catenin being concentrated to one side of the growth cone (FIG. 9A). It is possible that there is low level of Wnt proteins in the culture (many neurons express Wnts). […] Therefore, it is also possible that intrinsic aPKC signaling can create chirality within the growth cone with out extrinsic signals. Such intrinsic polarity may then robustly regulate cellular morphology upon directional instructions from the environment such as a Wnt gradient. It is well known that GSK3β phosphorylates β-catenin, which then leads to proteosome-mediated degradation of β-catenin. And it is also known that GSK3β is phosphorylated and inhibited by PKCζ^(1,2). Therefore, inhibiting GSK3β or the proteosome activity generally should increase β-catenin level throughout the growth cone, canceling the asymmetry. […] We are now testing the hypothesis that Wnt proteins may locally activate PKCζ, which then inhibits GSK3β and locally stabilizes β-catenin, which is part of the asymmetric cellular mechanism leading to directional choice of a growth cone. We examine the localization of β-catenin in post-crossing commissural axon growth cones in the “post-crossing” assay and “open-book” assays."}, "[3]": {"test_system": "commissural axons", "test": "Axon length of electroporated dissociated commissural neurons on Wnt5a-coated coverslips", "type": "cell-based, rat", "source_text": "Fzd3 mediates Wnt-stimulated commissural axon elongation. To directly test the function of PCP components in Wnt-mediated outgrowth of commissural axons, we electroporated DNA constructs to express PCP components in dissociated commissural neurons. The spinal cord of E11.5 mouse or E13 rat contains a ventricle into which plasmid DNA can be introduced (FIG. 28A). After injecting DNA into the central canal and electroporation, the spinal cord was dissected into an “open-book” configuration and then the dorsal spinal cord margin including the progenitor domains was dissociated as previously described ((Augsburger et al., 1999), FIG. 28A). More than 90% of the electroporated and dissociated neurons were TAG-1 immuno-reactive, confirming that they are commissural neurons (Wolf et al., 2008).\nThis may be due the presence of low endogenous levels of PCP components in these axons following 24 hours of culture (FIGS. 20A-20E).\nElectroporated commissural culture. Electroporations of rat E13 spinal cords were completed as previously described (Wolf et al., 2008). Neurons were dissociated from these spinal preps and grown as previously described (Augsburger et al., 1999). […] The axons lengths were quantified with Zeiss LSM510 software, verified with ImageJ quantification, and the data were analyzed with an unpaired two-tailed t test for each electroporation condition."}, "[4]": {"test_system": "JNK", "test": "Phospho-Jun immunoblot in HEK293T cells expressing Fzd3-mCherry", "type": "cell-based", "details": "Wnt5a added", "source_text": "Vgl2 antagonizes Dvl1's feedback inhibition of Fzd3 mediated Wnt/PCP Signaling. To elucidate how core PCP components function cell autonomously, we first explored how Dvl1, Vgl2 and Fzd3 interact with each other. It is known that Dvl is a central cytoplamsic molecule in the activation of Wnt-PCP signaling. In non-canonical signaling, Fzd is thought recruit Dvl to the plasma membrane and Dvl then subsequently activates the downstream signaling, such as Jun N terminal kinases (JNK), Rac1 and RhoA. […] However, upon co-expression of Fzd3 and Dvl1, we found a surprising Wnt5a-dependent down regulation of p-Jun level (FIG. 17A, lanes 5-7, quantified in FIG. 17B), uncovering a novel feedback inhibition mechanism in PCP signaling. With 30 minutes of Wnt5a addition p-Jun signal is essentially gone in Fzd3 and Dvl1 co expressing cells, (FIG. 17A lane 7).\nSurface biotinylation and immunopreciptiation. […] For the membrane immunoprecipitation, 600 ug of protein extracts were incubated overnight and retrieved by NeutrAvidin-coated Agarose beads (Pierce), the bound fraction was boiled and loaded on SDS-PAGE gel and analyzed by western blot analysis. […]"}},
  "data": [
    {"molecule": "B1", "values": [
      {"measurement": "axon degeneration / reduction of microtubule staining (Tuj1)", "setting": "[1]; 5 um pseudosubstrate peptide", "result": "much less degeneration was seen"},
      {"measurement": "axons remaining judged by Tuj1 staining", "setting": "[1]; 10 um pseudosubstrate peptide", "result": "more axons still remain"},
      {"measurement": "cell death induced by PKC inhibition", "setting": "[1]; pretreatment before pseudosubstrate peptide", "result": "block/reduce the cell death"},
      {"measurement": "β-catenin level and asymmetry in the growth cone", "setting": "[2]", "result": "increased the levels of β-catenin throughout the growth cone"},
      {"measurement": "increase in axon growth", "setting": "[3]; control neurons expressing EGFP", "result": "~15", "unit": "%"},
      {"measurement": "enhancement of axon length", "setting": "[3]; neurons over-expressing Fzd3-EGFP, within 24 hours", "result": "~36", "unit": "%"},
      {"measurement": "p-Jun level", "setting": "[4]", "result": "increased"}
    ]}
  ]
}
